Article PMC3328432 (PLoS Biology, 2012)

B1: human alanine-glyoxylate aminotransferase (AGT), wild type, major allele haplotype (enzyme, UniProt P21549 1-392, looked up)
chain: MASHKLLVTPPKALLKPLSIPNQLLLGPGPSNLPPRIMAAGGLQMIGSMSKDMYQIMDEIKEGIQYVFQTRNPLTLVISGSGHCALEAALVNVLEPGDSFLVGANGIWGQRAVDIGERIGARVHPMTKDPGGHYTLQEVEEGLAQHKPVLLFLTHGESSTGVLQPLDGFGELCHRYKCLLLVDSVASLGGTPLYMDRQGIDILYSGSQKALNAPPGTSLISFSDKAKKKMYSRKTKPFSFYLDIKWLANFWGCDDQPRMYHHTIPVISLYSLRESLALIAEQGLENSWRQHREAAAYLHGRLQALGLQLFVKDPALRLPTVTTVAVPAGYDWRDIVSYVIDHFDIEIMGGLGPSTGKVLRIGLLGCNATRENVDRVTEALRAALQHCPKKKL
modifications: pyridoxal-5'-phosphate (PLP) covalently bound to Lys209
notes: Alanine-glyoxylate aminotransferase (AGT, EC 2.6.1.44), human, major allele haplotype; C-terminus at Leu392; called the complete protein; 86 kDa homodimer; In the import assay in fibroblasts the protein was EGFP-tagged (pEGFP-C1 derived); the functional row uses this molecule; also called AGT(wt); wt-EGFP-AGT (in the import assay); source: E. coli BL21(DE3) RIL, purified (Ni-NTA, TEV cleavage, …)
B2: C-terminal cargo-binding segment of human Pex5p (residues 315-639) (domain or fragment)
chain: not shown
notes: Peroxisomal import receptor Pex5p, human, residues 315-639 (seven TPR segments and C-terminal helical bundle); In the functional rows the receptor was the endogenous Pex5p of human fibroblasts; this molecule stands for it; also called Pex5p(C); Pex5p receptor; source: E. coli BL21(DE3) RIL, purified (Ni-NTA, TEV cleavage, second Ni-NTA, gel filtration); not shown: His6, N-terminal, cleaved; GST, …

Columns and labels:
[1] = target: the molecule itself; assay: SEC-MALS; analytical gel filtration and static light scattering (MiniDAWN); complex formed by mixing purified Pex5p(C) and AGT; single components also run
[2] = target: B1; assay: ITC; settings: both partners purified
[3] = target: B1; assay: SEC-MALS; analytical gel filtration and static light scattering (MiniDAWN); complex formed by mixing purified Pex5p(C) and AGT; single components also run; settings: both partners purified
[4] = target: B1; assay: ITC; settings: both partners purified; remark: listed apart in the source

Row | Binder | stoichiometry N [1] | stoichiometry N [2] | stoichiometry N [3] | Kd [4]
1 | B1 | 2 |  |  | 
2 | B2 |  | 1 | 1 Pex5p(C) per AGT chain | 3.5 ± 0.4 µM
